Test results taken from paper PMC6513101, “Experimentally guided computational antibody affinity maturation with de novo docking, modelling and rational design” (PLoS Computational Biology, 2019).

Target: T1, biotinylated murine CCL20 (Mus musculus, UniProt O89093, biotin)
T1 construct: CCL20, mouse; recombinant; m2 with biotin; also called biotinylated muCCL20; muCCL20 antigen; source: in-house, standard mammalian cell expression; biotinylated
Experiment: ELISA; capture ELISA: plate-coated anti-mouse Fc antibody (1 ug/mL) captures the antibody variant (5 ug/mL); biotinylated muCCL20 titrated from 0 to 600 nM, 1 h
Details: both partners purified

T1 sequence (O89093 28-97): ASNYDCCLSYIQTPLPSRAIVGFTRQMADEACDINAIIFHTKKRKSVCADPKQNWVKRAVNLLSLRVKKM

| Binder | binding result | fold reduction of binding affinity against WT AB1 [fold] |
| --- | --- | --- |
| AB1 alanine variant 19 (H:Y26A) (antibody, V domains shown, IMGT numbering; IgG1, as m1; also called control; source: HEK293FT, transiently transfected, purified (Protein A)) VH: QVQLQQSGAELAKPGSSVKISCKAAGSSFTTNSIHWIKQTTGQALEWTGYIAPGSGGARYNEKFKGKATLTVDKSSGTAYMQLSSLTPVDTAVYYCALNIGTNPFTYWGQGTLVTVSS VL: DIVMTQGALPNPVPSGESVSITCRSSKSLLYSDGKTYLNWYLQRPGQSPQLLIYWMSTRASGVSDRFSGSGSGTDFTLKISGVEAEDVGVYYCQQGLEFPRTFGSGTKLEIK | binds | – |
| AB1 alanine variant 20 (L:S26A) (antibody, V domains shown, IMGT numbering; IgG1, as m1; also called control; source: HEK293FT, transiently transfected, purified (Protein A)) VH: QVQLQQSGAELAKPGSSVKISCKAYGSSFTTNSIHWIKQTTGQALEWTGYIAPGSGGARYNEKFKGKATLTVDKSSGTAYMQLSSLTPVDTAVYYCALNIGTNPFTYWGQGTLVTVSS VL: DIVMTQGALPNPVPSGESVSITCRSAKSLLYSDGKTYLNWYLQRPGQSPQLLIYWMSTRASGVSDRFSGSGSGTDFTLKISGVEAEDVGVYYCQQGLEFPRTFGSGTKLEIK | binds | – |
| AB1 alanine variant 5 (H:Y55A, H:R66A, L:Y31A) (antibody, V domains shown, IMGT numbering; IgG1, as m1; source: HEK293FT, transiently transfected, purified (Protein A)) VH: QVQLQQSGAELAKPGSSVKISCKAYGSSFTTNSIHWIKQTTGQALEWTGAIAPGSGGAAYNEKFKGKATLTVDKSSGTAYMQLSSLTPVDTAVYYCALNIGTNPFTYWGQGTLVTVSS VL: DIVMTQGALPNPVPSGESVSITCRSSKSLLASDGKTYLNWYLQRPGQSPQLLIYWMSTRASGVSDRFSGSGSGTDFTLKISGVEAEDVGVYYCQQGLEFPRTFGSGTKLEIK | binds | – |
| AB1 alanine variant 16 (L:K36A) (antibody, V domains shown, IMGT numbering; IgG1, as m1; source: HEK293FT, transiently transfected, purified (Protein A)) VH: QVQLQQSGAELAKPGSSVKISCKAYGSSFTTNSIHWIKQTTGQALEWTGYIAPGSGGARYNEKFKGKATLTVDKSSGTAYMQLSSLTPVDTAVYYCALNIGTNPFTYWGQGTLVTVSS VL: DIVMTQGALPNPVPSGESVSITCRSSKSLLYSDGATYLNWYLQRPGQSPQLLIYWMSTRASGVSDRFSGSGSGTDFTLKISGVEAEDVGVYYCQQGLEFPRTFGSGTKLEIK | – | 3 |
| AB1 affinity maturation variant 2 (H:S29D) (antibody, V domains shown, IMGT numbering; IgG1, as m1; source: HEK293FT, transiently transfected, purified (Protein A)) VH: QVQLQQSGAELAKPGSSVKISCKAYGSDFTTNSIHWIKQTTGQALEWTGYIAPGSGGARYNEKFKGKATLTVDKSSGTAYMQLSSLTPVDTAVYYCALNIGTNPFTYWGQGTLVTVSS VL: DIVMTQGALPNPVPSGESVSITCRSSKSLLYSDGKTYLNWYLQRPGQSPQLLIYWMSTRASGVSDRFSGSGSGTDFTLKISGVEAEDVGVYYCQQGLEFPRTFGSGTKLEIK | binds | – |
| AB1 affinity maturation variant 3 (H:T36Q) (antibody, V domains shown, IMGT numbering; IgG1, as m1; source: HEK293FT, transiently transfected, purified (Protein A)) VH: QVQLQQSGAELAKPGSSVKISCKAYGSSFTQNSIHWIKQTTGQALEWTGYIAPGSGGARYNEKFKGKATLTVDKSSGTAYMQLSSLTPVDTAVYYCALNIGTNPFTYWGQGTLVTVSS VL: DIVMTQGALPNPVPSGESVSITCRSSKSLLYSDGKTYLNWYLQRPGQSPQLLIYWMSTRASGVSDRFSGSGSGTDFTLKISGVEAEDVGVYYCQQGLEFPRTFGSGTKLEIK | binds | – |
| AB1 affinity maturation variant 4 (H:N37T) (antibody, V domains shown, IMGT numbering; IgG1, as m1; source: HEK293FT, transiently transfected, purified (Protein A)) VH: QVQLQQSGAELAKPGSSVKISCKAYGSSFTTTSIHWIKQTTGQALEWTGYIAPGSGGARYNEKFKGKATLTVDKSSGTAYMQLSSLTPVDTAVYYCALNIGTNPFTYWGQGTLVTVSS VL: DIVMTQGALPNPVPSGESVSITCRSSKSLLYSDGKTYLNWYLQRPGQSPQLLIYWMSTRASGVSDRFSGSGSGTDFTLKISGVEAEDVGVYYCQQGLEFPRTFGSGTKLEIK | binds | – |
| AB1 affinity maturation variant 5 (H:G59Y) (antibody, V domains shown, IMGT numbering; IgG1, as m1; source: HEK293FT, transiently transfected, purified (Protein A)) VH: QVQLQQSGAELAKPGSSVKISCKAYGSSFTTNSIHWIKQTTGQALEWTGYIAPYSGGARYNEKFKGKATLTVDKSSGTAYMQLSSLTPVDTAVYYCALNIGTNPFTYWGQGTLVTVSS VL: DIVMTQGALPNPVPSGESVSITCRSSKSLLYSDGKTYLNWYLQRPGQSPQLLIYWMSTRASGVSDRFSGSGSGTDFTLKISGVEAEDVGVYYCQQGLEFPRTFGSGTKLEIK | binds | – |
